Our source for the ELISA Readings (Absorbance), Absorbance and DO11.10 IL-2 Released (pg/well) values is US7074905.

Assay [1] deals with soluble sc-DR2/MBP-Cκ fusion molecule (human kappa constant domain) from pDRHK-transfected CHO cells (human). In words: sandwich ELISA, L227 capture, L243-HRP probe; cell line CHOA5. For orientation: An ELISA detects its analyte on a solid surface through an enzyme-linked reagent.
Assay [2] has the same target. Briefly: sandwich ELISA, L227 capture, L243-HRP probe; cell line CHOE 12.
The target is the same in assay [3]. In words: sandwich ELISA, anti-human kappa capture, L243-HRP probe; cell line CHOA5.
The target is the same in assay [4]. Briefly: sandwich ELISA, anti-human kappa capture, L243-HRP probe; cell line CHOE 12.
The target of assay [5] is soluble sc-IA^d/OVA produced in SF9 insect cells (baculovirus) (murine). Briefly: IA^d-specific sandwich ELISA, M5/114 capture, biotin-AMS-32.1 probe; sc-IA^d/OVA from insect cell culture (positive control).
For assay [6], the target named is soluble sc-IA^d/OVA secreted by SCE1-transfected NSO cells (murine). In words: IA^d-specific sandwich ELISA, M5/114 capture, biotin-AMS-32.1 probe; undiluted culture supernatant of E10 (SCE1 transfectant).
Assay [7] has the same target. Briefly: IA^d-specific sandwich ELISA, M5/114 capture, biotin-AMS-32.1 probe; undiluted culture supernatant of E11 (SCE1 transfectant).
Assay [8] deals with sc-IA^d/OVA-Cκ fusion molecule (sc-IA^d/OVA fused to the mouse kappa constant domain), from pIADK-transfected NSO cells (murine; mouse). Briefly: cell-based or functional assay.
Assay [9] deals with sc-IA^d/gD (sc-IA^d fusion protein carrying the gD 246-261 peptide), from insect cells (HSV-1; murine). In words: cell-based or functional assay.
For assay [10], the target named is soluble sc-IA^d/OVA produced in SF9 insect cells (baculovirus) (murine). Briefly: cell-based or functional assay.

Chain of soluble sc-DR2/MBP-Cκ fusion molecule (human kappa constant domain) from pDRHK-transfected CHO cells (human) (P02686 other isoform, or with tags, fused parts or gaps): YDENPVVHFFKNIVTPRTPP

For L243 mAb (ATCC HB-55) (antibody), the ELISA Readings (Absorbance) in [1] is 0.434; in assay [2] it was 0.245; in [3], 1.45; in assay [4] it was 1.06.
For the substance “anti-IA^d mAb AMS-32.1 (PharMingen) (antibody)”, the Absorbance turned out to be 2.44 in assay [5], 0.781 in [6] and 0.96 in assay [7].
On to “T-cell receptor of the murine T-cell hybridoma DO11.10 (TCR)”, for which the DO11.10 IL-2 Released (pg/well) in assay [8] was determined as 500 pg/well; in assay [9], 0 pg/well; in assay [10], 528 pg/well.
